Test results: publication PMC9482650, “Quantitative fragmentomics allow affinity mapping of interactomes” (Nature Communications, 2022)

Experiments:
Assay in all cases: holdup assay
Parameters in all cases: key: below the threshold = too weak to quantify, mostly under pKd 3.1 to 4
APBA3_1, O96018 = target: T1, APBA3_1, O96018
T1 sequence (O96018 389-490, limits assumed, looked up): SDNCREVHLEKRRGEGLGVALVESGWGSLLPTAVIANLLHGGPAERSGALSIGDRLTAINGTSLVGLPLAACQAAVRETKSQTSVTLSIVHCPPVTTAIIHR

ARHGAP21, Q5T5U3 = target: T2, ARHGAP21, Q5T5U3
T2 sequence (Q5T5U3 45-169, limits assumed, looked up): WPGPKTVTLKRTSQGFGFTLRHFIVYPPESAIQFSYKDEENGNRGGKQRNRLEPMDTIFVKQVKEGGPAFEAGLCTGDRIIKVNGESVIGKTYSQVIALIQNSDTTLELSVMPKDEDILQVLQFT

ARHGEF12, Q9NZN5-2 = target: ARHGEF12, Q9NZN5-2
Sequence of ARHGEF12, Q9NZN5-2 (Q9NZN5 other isoform, or with tags, fused parts or gaps): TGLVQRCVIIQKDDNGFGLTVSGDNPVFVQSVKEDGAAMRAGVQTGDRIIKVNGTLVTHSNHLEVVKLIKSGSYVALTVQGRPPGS

CARD11, Q9BXL7 = target: T3, CARD11, Q9BXL7
T3 sequence (Q9BXL7 662-765, limits assumed, looked up): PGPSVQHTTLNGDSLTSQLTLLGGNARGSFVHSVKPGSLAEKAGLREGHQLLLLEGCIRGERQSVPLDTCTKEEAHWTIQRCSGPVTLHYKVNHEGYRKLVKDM

DLG2_2, Q15700 = target: DLG2_2, Q15700
Sequence of DLG2_2, Q15700 (Q15700 189-283): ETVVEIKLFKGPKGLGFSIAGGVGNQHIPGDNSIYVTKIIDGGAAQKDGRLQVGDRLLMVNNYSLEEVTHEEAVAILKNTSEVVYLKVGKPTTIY

DLG4_1, P78352 = target: DLG4_1, P78352
Sequence of DLG4_1, P78352 (P78352 62-152): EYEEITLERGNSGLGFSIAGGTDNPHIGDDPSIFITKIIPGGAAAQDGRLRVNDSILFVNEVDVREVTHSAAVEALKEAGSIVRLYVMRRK

DVL3, Q92997 = target: T4, DVL3, Q92997
T4 sequence (Q92997 244-331, limits assumed, looked up): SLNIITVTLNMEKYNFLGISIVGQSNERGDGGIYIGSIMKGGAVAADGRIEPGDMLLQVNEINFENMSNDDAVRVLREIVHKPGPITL

FRMPD2_3, Q68DX3 = target: FRMPD2_3, Q68DX3
Sequence of FRMPD2_3, Q68DX3 (Q68DX3 1073-1166): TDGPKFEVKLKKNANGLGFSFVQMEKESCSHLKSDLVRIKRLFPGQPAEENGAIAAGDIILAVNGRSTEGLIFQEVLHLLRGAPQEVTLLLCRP

FRMPD4, Q14CM0 = target: FRMPD4, Q14CM0
Sequence of FRMPD4, Q14CM0 (Q14CM0 67-160): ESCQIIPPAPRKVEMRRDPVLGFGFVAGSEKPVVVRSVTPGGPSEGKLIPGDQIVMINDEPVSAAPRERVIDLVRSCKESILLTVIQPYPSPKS

GORASP1, Q9BQQ3 = target: GORASP1, Q9BQQ3
Sequence of GORASP1, Q9BQQ3 (Q9BQQ3 1-208): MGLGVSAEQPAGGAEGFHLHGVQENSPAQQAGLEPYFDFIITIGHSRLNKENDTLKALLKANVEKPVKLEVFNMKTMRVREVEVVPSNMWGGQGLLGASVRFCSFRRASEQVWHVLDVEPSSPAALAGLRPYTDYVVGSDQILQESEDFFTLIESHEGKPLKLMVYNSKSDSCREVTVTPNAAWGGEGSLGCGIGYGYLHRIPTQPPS

GRIP2_5, Q9C0E4 = target: GRIP2_5, Q9C0E4
Sequence of GRIP2_5, Q9C0E4 (Q9C0E4 544-642): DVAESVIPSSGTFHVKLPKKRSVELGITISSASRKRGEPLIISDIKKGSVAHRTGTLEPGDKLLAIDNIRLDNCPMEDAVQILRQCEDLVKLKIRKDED

Inadl_10, Q8NI35 = target: Inadl_10, Q8NI35
Sequence of Inadl_10, Q8NI35 (Q8NI35 1673-1763): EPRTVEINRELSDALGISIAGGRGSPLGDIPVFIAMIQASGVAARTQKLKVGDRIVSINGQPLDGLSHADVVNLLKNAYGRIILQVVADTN

Inadl_6, Q8NI35 = target: Inadl_6, Q8NI35
Sequence of Inadl_6, Q8NI35 (Q8NI35 1058-1167): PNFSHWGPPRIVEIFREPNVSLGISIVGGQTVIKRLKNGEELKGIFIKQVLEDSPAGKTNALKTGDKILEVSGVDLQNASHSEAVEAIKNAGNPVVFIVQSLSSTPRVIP

Inadl_9, Q8NI35 = target: Inadl_9, Q8NI35
Sequence of Inadl_9, Q8NI35 (Q8NI35 1530-1615): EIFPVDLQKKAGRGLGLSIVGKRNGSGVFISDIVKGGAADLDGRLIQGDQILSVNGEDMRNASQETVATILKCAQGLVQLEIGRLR

LDB3, O75112 = target: LDB3, O75112
Sequence of LDB3, O75112 (O75112 1-94): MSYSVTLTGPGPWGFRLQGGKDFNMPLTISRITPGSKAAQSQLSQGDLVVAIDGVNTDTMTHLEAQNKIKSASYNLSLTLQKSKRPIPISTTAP

LNX1_1, Q8TBB1 = target: LNX1_1, Q8TBB1
Sequence of LNX1_1, Q8TBB1 (Q8TBB1 261-371): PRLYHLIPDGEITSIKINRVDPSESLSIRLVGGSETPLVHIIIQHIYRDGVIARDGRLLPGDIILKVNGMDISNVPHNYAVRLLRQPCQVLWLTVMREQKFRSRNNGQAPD

LNX1_2, Q8TBB1 = target: LNX1_2, Q8TBB1
Sequence of LNX1_2, Q8TBB1 (Q8TBB1 371-470): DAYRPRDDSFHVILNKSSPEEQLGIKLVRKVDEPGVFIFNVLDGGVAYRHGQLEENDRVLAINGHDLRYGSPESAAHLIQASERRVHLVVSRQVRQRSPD

MAGI1_1, Q96QZ7 = target: MAGI1_1, Q96QZ7
Sequence of MAGI1_1, Q96QZ7 (Q96QZ7 1-106): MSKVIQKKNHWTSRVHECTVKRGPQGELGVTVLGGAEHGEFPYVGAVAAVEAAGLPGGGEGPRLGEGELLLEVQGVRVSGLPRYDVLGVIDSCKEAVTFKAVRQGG

MAGI2_2, Q86UL8 = target: MAGI2_2, Q86UL8
Sequence of MAGI2_2, Q86UL8 (Q86UL8 410-522): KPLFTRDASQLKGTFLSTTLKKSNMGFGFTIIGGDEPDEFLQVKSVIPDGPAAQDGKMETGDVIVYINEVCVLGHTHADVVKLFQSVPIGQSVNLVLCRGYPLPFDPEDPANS

MAGI2_3, Q86UL8 = target: MAGI2_3, Q86UL8
Sequence of MAGI2_3, Q86UL8 (Q86UL8 600-682): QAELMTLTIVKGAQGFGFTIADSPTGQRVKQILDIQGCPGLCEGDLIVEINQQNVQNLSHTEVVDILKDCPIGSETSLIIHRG

MAGI2_4, Q86UL8 = target: MAGI2_4, Q86UL8
Sequence of MAGI2_4, Q86UL8 (Q86UL8 772-865): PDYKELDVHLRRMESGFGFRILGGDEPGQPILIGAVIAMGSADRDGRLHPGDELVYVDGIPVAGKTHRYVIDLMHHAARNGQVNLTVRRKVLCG

MAGI3_2, Q5TCQ9 = target: MAGI3_2, Q5TCQ9
Sequence of MAGI3_2, Q5TCQ9 (Q5TCQ9 398-503): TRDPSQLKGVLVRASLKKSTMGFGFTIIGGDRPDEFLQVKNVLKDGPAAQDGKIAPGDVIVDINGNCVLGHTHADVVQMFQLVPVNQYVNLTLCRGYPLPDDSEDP

MPDZ_10, O75970 = target: T5, MPDZ_10, O75970
T5 sequence (O75970 1624-1722, limits assumed, looked up): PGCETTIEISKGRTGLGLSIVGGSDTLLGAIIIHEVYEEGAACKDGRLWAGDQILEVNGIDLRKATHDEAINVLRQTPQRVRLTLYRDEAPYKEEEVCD

MPP7, Q5T2T1 = target: T6, MPP7, Q5T2T1
T6 sequence (Q5T2T1 134-230, limits assumed, looked up): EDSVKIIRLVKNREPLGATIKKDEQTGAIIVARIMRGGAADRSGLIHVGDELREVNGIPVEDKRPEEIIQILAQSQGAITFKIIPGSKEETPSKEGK

NHERF3_4, Q5T2W1 = target: T7, NHERF3_4, Q5T2W1
T7 sequence (Q5T2W1 373-468, limits assumed, looked up): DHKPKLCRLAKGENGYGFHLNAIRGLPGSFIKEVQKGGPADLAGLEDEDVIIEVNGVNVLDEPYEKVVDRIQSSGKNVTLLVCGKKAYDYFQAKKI

NOS1, P29475 = target: NOS1, P29475
Sequence of NOS1, P29475 (P29475 9-101): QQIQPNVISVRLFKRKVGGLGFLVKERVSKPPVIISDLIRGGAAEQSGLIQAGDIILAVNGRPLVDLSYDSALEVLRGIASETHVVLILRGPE

PDZRN4_1, Q6ZMN7 = target: PDZRN4_1, Q6ZMN7
Sequence of PDZRN4_1, Q6ZMN7 (Q6ZMN7 213-318): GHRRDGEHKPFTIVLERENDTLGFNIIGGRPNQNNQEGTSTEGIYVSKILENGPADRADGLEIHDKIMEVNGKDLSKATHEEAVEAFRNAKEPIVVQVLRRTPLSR

PTPN3, P26045 = target: PTPN3, P26045
Sequence of PTPN3, P26045 (P26045 505-587): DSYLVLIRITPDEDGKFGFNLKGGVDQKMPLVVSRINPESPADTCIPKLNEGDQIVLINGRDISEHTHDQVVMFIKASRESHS

RADIL, Q96JH8 = target: T8, RADIL, Q96JH8
T8 sequence (Q96JH8 971-1071, limits assumed, looked up): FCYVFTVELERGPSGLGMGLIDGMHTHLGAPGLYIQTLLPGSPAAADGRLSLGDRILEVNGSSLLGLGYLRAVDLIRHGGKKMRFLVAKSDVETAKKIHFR

SCRIB_3, Q14160 = target: SCRIB_3, Q14160
Sequence of SCRIB_3, Q14160 (Q14160 999-1103): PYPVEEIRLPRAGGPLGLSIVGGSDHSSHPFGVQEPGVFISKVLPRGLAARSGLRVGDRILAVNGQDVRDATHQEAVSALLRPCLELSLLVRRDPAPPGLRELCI

[1] = plain residues with an end cap or a label only (N-terminal biotin on a linker: ado-ado)
[2] = plain residues with an end cap or a label only (N-terminal biotin on a linker: (peg)3)

For RTQSSDSAYV [GJD2, Q9UKL4], the pKd (APBA3_1, O96018; [1]) was “below the threshold”, the pKd (ARHGAP21, Q5T5U3; [1]) was 3.62 and the pKd (ARHGEF12, Q9NZN5-2; [1]) was 4.35. For the same binder, the pKd (CARD11, Q9BXL7; [1]) was “below the threshold”, the pKd (DLG2_2, Q15700; [1]) was “below the threshold” and the pKd (DLG4_1, P78352; [1]) was “below the threshold”. It also gave a pKd (DVL3, Q92997; [1]) of 3.48, a pKd (FRMPD2_3, Q68DX3; [1]) of 3.71 and a pKd (FRMPD4, Q14CM0; [1]) of 3.86. The pKd (GORASP1, Q9BQQ3; [1]) was 3.67, the pKd (GRIP2_5, Q9C0E4; [1]) was “below the threshold” and the pKd (Inadl_10, Q8NI35; [1]) was “below the threshold”. For the same binder, the pKd (Inadl_6, Q8NI35; [1]) was “below the threshold”, the pKd (Inadl_9, Q8NI35; [1]) was 3.85 and the pKd (LDB3, O75112; [1]) was “below the threshold”. For the same binder, the pKd (LNX1_1, Q8TBB1; [1]) was 3.9, the pKd (LNX1_2, Q8TBB1; [1]) was 4.11 and the pKd (MAGI1_1, Q96QZ7; [1]) was “below the threshold”. The pKd (MAGI2_2, Q86UL8; [1]) was “below the threshold”, the pKd (MAGI2_3, Q86UL8; [1]) was “below the threshold” and the pKd (MAGI2_4, Q86UL8; [1]) was “below the threshold”. The pKd (MAGI3_2, Q5TCQ9; [1]) was “below the threshold”, the pKd (MPDZ_10, O75970; [1]) was “below the threshold” and the pKd (MPP7, Q5T2T1; [1]) was “below the threshold”. For the same binder, the pKd (NHERF3_4, Q5T2W1; [1]) was 3.54, the pKd (NOS1, P29475; [1]) was 3.95 and the pKd (PDZRN4_1, Q6ZMN7; [1]) was “below the threshold”. For the same binder, the pKd (PTPN3, P26045; [1]) was 3.52, the pKd (RADIL, Q96JH8; [1]) was 4.43 and the pKd (SCRIB_3, Q14160; [1]) was “below the threshold”.

With YDEPTTTTSVPL [SARS-Cov2-3a, P0DTC3] the pKd (APBA3_1, O96018; [2]) was “below the threshold”, the pKd (ARHGAP21, Q5T5U3; [2]) was 3.75 and the pKd (ARHGEF12, Q9NZN5-2; [2]) was “below the threshold”. For the same binder, the pKd (CARD11, Q9BXL7; [2]) was “below the threshold”, the pKd (DLG2_2, Q15700; [2]) was “below the threshold” and the pKd (DLG4_1, P78352; [2]) was “below the threshold”. For the same binder, the pKd (DVL3, Q92997; [2]) was “below the threshold”, the pKd (FRMPD2_3, Q68DX3; [2]) was “below the threshold” and the pKd (FRMPD4, Q14CM0; [2]) was 3.97. The pKd (GORASP1, Q9BQQ3; [2]) was “below the threshold”, the pKd (GRIP2_5, Q9C0E4; [2]) was “below the threshold” and the pKd (Inadl_10, Q8NI35; [2]) was “below the threshold”. The pKd (Inadl_6, Q8NI35; [2]) was “below the threshold”, the pKd (Inadl_9, Q8NI35; [2]) was “below the threshold” and the pKd (LDB3, O75112; [2]) was “below the threshold”. For the same binder, the pKd (LNX1_1, Q8TBB1; [2]) was “below the threshold”, the pKd (LNX1_2, Q8TBB1; [2]) was “below the threshold” and the pKd (MAGI1_1, Q96QZ7; [2]) was “below the threshold”. For the same binder, the pKd (MAGI2_2, Q86UL8; [2]) was “below the threshold”, the pKd (MAGI2_3, Q86UL8; [2]) was “below the threshold” and the pKd (MAGI2_4, Q86UL8; [2]) was “below the threshold”. The pKd (MAGI3_2, Q5TCQ9; [2]) was “below the threshold”, the pKd (MPDZ_10, O75970; [2]) was “below the threshold” and the pKd (MPP7, Q5T2T1; [2]) was “below the threshold”. The pKd (NHERF3_4, Q5T2W1; [2]) was 4.29, the pKd (NOS1, P29475; [2]) was “below the threshold” and the pKd (PDZRN4_1, Q6ZMN7; [2]) was “below the threshold”. For the same binder, the pKd (PTPN3, P26045; [2]) was “below the threshold”, the pKd (RADIL, Q96JH8; [2]) was “below the threshold” and the pKd (SCRIB_3, Q14160; [2]) was “below the threshold”.

RPGFASESKV [ADRB1, P08588] was tested, and the pKd (APBA3_1, O96018; [1]) was “below the threshold”, the pKd (ARHGAP21, Q5T5U3; [1]) was 3.98 and the pKd (ARHGEF12, Q9NZN5-2; [1]) was 3.52. For the same binder, the pKd (CARD11, Q9BXL7; [1]) was “below the threshold”, the pKd (DLG2_2, Q15700; [1]) was 3.87 and the pKd (DLG4_1, P78352; [1]) was 4.03. For the same binder, the pKd (DVL3, Q92997; [1]) was “below the threshold”, the pKd (FRMPD2_3, Q68DX3; [1]) was “below the threshold” and the pKd (FRMPD4, Q14CM0; [1]) was “below the threshold”. For the same binder, the pKd (GORASP1, Q9BQQ3; [1]) was “below the threshold”, the pKd (GRIP2_5, Q9C0E4; [1]) was “below the threshold” and the pKd (Inadl_10, Q8NI35; [1]) was “below the threshold”. For the same binder, the pKd (Inadl_6, Q8NI35; [1]) was “below the threshold”, the pKd (Inadl_9, Q8NI35; [1]) was 3.47 and the pKd (LDB3, O75112; [1]) was “below the threshold”. The pKd (LNX1_1, Q8TBB1; [1]) was 3.7, the pKd (LNX1_2, Q8TBB1; [1]) was “below the threshold” and the pKd (MAGI1_1, Q96QZ7; [1]) was “below the threshold”. The pKd (MAGI2_2, Q86UL8; [1]) was 4.6, the pKd (MAGI2_3, Q86UL8; [1]) was “below the threshold” and the pKd (MAGI2_4, Q86UL8; [1]) was “below the threshold”. The pKd (MAGI3_2, Q5TCQ9; [1]) was 5.13, the pKd (MPDZ_10, O75970; [1]) was “below the threshold” and the pKd (MPP7, Q5T2T1; [1]) was “below the threshold”. The pKd (NHERF3_4, Q5T2W1; [1]) was “below the threshold”, the pKd (NOS1, P29475; [1]) was 3.6 and the pKd (PDZRN4_1, Q6ZMN7; [1]) was 3.69. The pKd (PTPN3, P26045; [1]) was 4.32, the pKd (RADIL, Q96JH8; [1]) was “below the threshold” and the pKd (SCRIB_3, Q14160; [1]) was 3.49.
